Publication PMC7385124, “The molecular basis of thioalcohol production in human body odour” (Scientific Reports, 2020)

What was measured:
[1] = system: CC(C)(CCO)SC[C@H](N)C(=O)O; test: purified protein, by the assay type; parameters: DTNB thiol release, A412, continuous steady-state Michaelis-Menten kinetics of C-S lyase; conditions: pH 7.8; 37.0 °C
Procedure: (§1) In vitro activity assays were performed using an Epoch2 (BioTek) plate reader. Reactions were measured in 96-well plate. A continuous assay, described previously[3] was used to measure 3M3SH. A 200 μL reaction contained […], variable amounts of substrate and 0.4 mM DTNB in 50 mM KPi and 200 mM NaCl, pH 7.8. […] Each reaction was incubated at 37 °C for 30 min. Release of the thiol 3M3SH was measured by reaction with DTNB to form 2-nitro-5-thiobenzoic acid (TNB) which is measured at A412 nm every minute. Background rate of DTNB decomposition was subtracted in each assay. Michaelis–Menten plots were derived from 6 to 8 substrate concentrations using Prism Version 5.01 (GraphPad) to calculate the Kcat and KM. Enzyme concentrations were assumed to be the concentration of PLP-bound enzyme with two active sites per enzyme. Velocity curves for all in vitro kinetics are shown in the supplementary information (Supplementary Information Figures S10–S12). Next, we cloned and overexpressed genes encoding a representative range of PatB-type enzymes, with two MetC proteins as controls (Fig. 2, denoted by coloured dots) and purified the proteins for biochemical analysis.

[2] = system: CCCC(C)(CCO)SC[C@H](N)C(=O)O; test: purified protein, by the assay type; parameters: DTNB thiol release, A412, continuous steady-state Michaelis-Menten kinetics of C-S lyase; conditions: pH 7.8; 37.0 °C
Procedure: as §1

[3] = molecular target: Staphylococcus hominis PatB (cysteine-thiol lyase, PLP-dependent C-S lyase) (Staphylococcus hominis); test: crystal structure; ShPatB at 15 mg/mL in 20 mM Tris pH 8, 50 mM NaCl; hanging drops, 4% Tacsimate pH 6, 12% PEG 3,350, room temperature; without and with 20 mM L-cycloserine

stoichiometry N [3]	Substance	Km [1]	kcat [1]	kcat/Km [1]	Km [2]	kcat [2]	kcat/Km [2]
	EcTnaA (Escherichia coli K-12)	3.3 mM	0.0117 s⁻¹	3.33 M⁻¹ s⁻¹	2.15 mM	0.051 s⁻¹	23.7 M⁻¹ s⁻¹
2	Staphylococcus hominis PatB (cysteine-thiol lyase, PLP-dependent C-S lyase) (enzyme)						
